Measurements reported in patent US20030120051A1 (SUGEN, published 2003).

Target: T1, rat CASPR/p190 (rat, UniProt P97846 21-1381)
T1 construct: Endogenous in GH3 cells and rat brain, or expressed from pCM190R in COS7 cells; read from membrane lysates; no cleavage site stated; also called Contactin ASsociated PRotein; 190 kDa protein
T1 sequence: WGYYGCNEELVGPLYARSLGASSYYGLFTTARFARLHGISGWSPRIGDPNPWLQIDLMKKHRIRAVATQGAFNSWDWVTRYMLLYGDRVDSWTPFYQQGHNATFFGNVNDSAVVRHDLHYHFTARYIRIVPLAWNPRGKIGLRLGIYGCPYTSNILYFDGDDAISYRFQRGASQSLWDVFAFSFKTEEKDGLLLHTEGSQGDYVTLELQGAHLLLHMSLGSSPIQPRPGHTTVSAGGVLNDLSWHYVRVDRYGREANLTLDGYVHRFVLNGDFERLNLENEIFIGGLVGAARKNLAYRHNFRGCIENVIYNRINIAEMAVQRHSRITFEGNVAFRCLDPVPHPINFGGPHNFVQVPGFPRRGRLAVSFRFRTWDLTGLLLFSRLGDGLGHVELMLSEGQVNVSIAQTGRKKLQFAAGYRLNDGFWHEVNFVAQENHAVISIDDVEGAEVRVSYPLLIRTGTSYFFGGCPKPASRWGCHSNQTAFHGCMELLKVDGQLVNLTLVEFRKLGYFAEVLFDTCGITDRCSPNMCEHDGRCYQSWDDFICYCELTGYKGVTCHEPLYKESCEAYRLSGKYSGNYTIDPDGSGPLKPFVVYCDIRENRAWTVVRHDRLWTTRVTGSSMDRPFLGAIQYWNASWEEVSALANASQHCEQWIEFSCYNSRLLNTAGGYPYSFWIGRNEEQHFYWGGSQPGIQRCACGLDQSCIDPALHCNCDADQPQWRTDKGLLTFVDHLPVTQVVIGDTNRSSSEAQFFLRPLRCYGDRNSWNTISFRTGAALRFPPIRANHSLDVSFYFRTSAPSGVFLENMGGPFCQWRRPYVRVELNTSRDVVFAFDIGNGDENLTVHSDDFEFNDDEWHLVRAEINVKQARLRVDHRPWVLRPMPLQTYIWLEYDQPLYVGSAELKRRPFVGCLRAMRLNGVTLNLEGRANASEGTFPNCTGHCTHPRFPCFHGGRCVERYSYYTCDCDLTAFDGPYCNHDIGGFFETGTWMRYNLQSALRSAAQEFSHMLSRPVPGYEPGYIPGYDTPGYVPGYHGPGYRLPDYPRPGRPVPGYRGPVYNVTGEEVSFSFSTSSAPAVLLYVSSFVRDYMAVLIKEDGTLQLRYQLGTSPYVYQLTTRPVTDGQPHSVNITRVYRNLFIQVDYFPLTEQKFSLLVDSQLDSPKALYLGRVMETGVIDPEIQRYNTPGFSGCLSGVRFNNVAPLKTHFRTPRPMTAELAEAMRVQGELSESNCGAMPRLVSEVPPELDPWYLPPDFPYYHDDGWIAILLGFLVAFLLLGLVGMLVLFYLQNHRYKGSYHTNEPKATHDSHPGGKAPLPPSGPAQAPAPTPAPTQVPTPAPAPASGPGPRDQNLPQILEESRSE
Assay: bioaffinity precipitation from membrane extracts of labeled GH3 cells

binding result: no binding
B1: βF-Fc (FNIII domain of RPTPβ fused to human IgG1-Fc) (Fc fusion)
chain: not shown
notes: domain: FNIII; also called the FNIII domain alone; fibronectin domain alone; not shown: human IgG1 Fc (vector pCNγ1)
